In patent publication US7087420B1, “Microbial β-glucuronidase genes, gene products and uses thereof” (Cambia, priority 1997, dated 2006):

Key:
Format in all cases: cell-based
E. coli = experiment: GUS activity of transfectants with expression vectors, E. coli host; set-up: key: all tested transfectants exhibit GUS activity (indicated by a +); details: No SP (signal peptide)
Description: (§1) A series of expression vector constructs of three different GUS genes, E. coli GUS, Staphylococcus GUS, and the AO version of codon-optimized Staphylococcus GUS, are prepared and tested for enzymatic activity in E. coli, yeast, and plants (rice, Millin variety). […] The E. coli vector contains a sequence encoding a pelB signal peptide, the yeast vectors contain a sequence encoding either an invertase or Mat alpha signal peptide, and the plant vectors contain a sequence encoding either a glycine-rich protein (GRP) or extensin signal peptide.
(§2) The GUS genes are cloned into each of these vectors using standard recombinant techniques of isolation of a GUS-gene containing fragment and ligation into an appropriately restricted vector. The recombinant vectors are then transfected into the appropriate host and transfectants are tested for GUS activity.
(§3) Moreover, similar results are obtained regardless of the presence or absence of a signal peptide.

KW1 cells = experiment: Cellular localization: GUS activity in periplasm fraction, β-gal activity subtracted; details: percent of total activity in periplasm fraction, expressed in E. coli, β-gal background subtracted
Text: Secretion index maybe calculated as the percentage of total GUS activity in periplasm or other extracellular environment less the percentage of total β-galactosidase activity found in the same extracellular environment.
Secretion of the enzyme may be verified by assaying for GUS activity in the extracellular environment. If the cells secreting GUS are gram-positive bacteria, yeasts, molds, plants, or other organisms with cell walls, activity may be assayed in the culture medium and in a cell extract, however, the protein may not be transported through the cell wall. Thus, if no or low activity of a secreted form of GUS is found in the culture medium, protoplasts made by osmotic shock or enzymatic digestion of the cell wall or other suitable procedure and the supernatant are assayed for GUS activity. […]
Cellular fractions (e.g., periplasm, spheroplast, supernatant, etc.) are prepared from KW1 cells transformed with pRAJa17.1 or a subfragment that contains the GUS gene and from E. coli cells that express β-glucuronidase. GUS activity and β-galactosidase (β-gal) activity is determined for each fraction. The percent of total activity in the periplasm fraction for GUS and β-gal (a non-secreted protein) are calculated; the amount of β-gal activity is considered background and thus is subtracted from the amount of β-glucuronidase activity. […]

[1] = test system: plants (rice, Millin variety); experiment: GUS activity of transfectants with expression vectors, plant host; set-up: key: all tested transfectants exhibit GUS activity (indicated by a +)
Description: as §1, §2, §3

yeast = experiment: GUS activity of transfectants with expression vectors, yeast host; set-up: key: all tested transfectants exhibit GUS activity (indicated by a +)
Description: as §1, §2, §3

KW1 = experiment: X-GlcA staining of low-cysteine E. coli GUS muteins in KW1; details: pBS backbone in KW1, staining with X-GlcA
Text: Single and multiple Cys muteins are constructed by site-directed mutagenesis techniques. Eight of the nine cysteine residues in E. coli GUS are changed to the corresponding residue found in human GUS based on alignment of the two protein sequences. One of the E. coli GUS cysteine residues, amino acid 463, aligns with a cysteine residue in human GUS and was not altered. The corresponding amino acids between E. coli GUS and human GUS are shown below.
The mutein GUS genes are cloned into a pBS backbone. The mutations are confirmed by diagnostic restriction site changes and by DNA sequence analysis. Recombinant vectors are transfected into KW1 and GUS activity assayed by staining with X-GlcA (5-bromo-4-chloro-3-indolyl-β-D-glucuronide).

Row | Molecule | GUS activity (E. coli) | GUS activity found in the periplasm (KW1 cells) | GUS activity ([1]; Extensin signal peptide) | GUS activity ([1]; GRP signal peptide) | GUS activity ([1]; No SP) | GUS activity (yeast; Invertase signal peptide) | GUS activity (yeast; Mat α signal peptide) | GUS activity (yeast; No SP) | GUS activity (KW1)
1 | E. coli GUS: E. coli β-glucuronidase encoded by gusA, 603 amino acids, used as comparison standard (protein, UniProt P05804 1-603, looked up) Beta-glucuronidase: MLRPVETPTREIKKLDGLWAFSLDRENCGIDQRWWESALQESRAIAVPGSFNDQFADADIRNYAGNVWYQREVFIPKGWAGQRIVLRFDAVTHYGKVWVNNQEVMEHQGGYTPFEADVTPYVIAGKSVRITVCVNNELNWQTIPPGMVITDENGKKKQSYFHDFFNYAGIHRSVMLYTTPNTWVDDITVVTHVAQDCNHASVDWQVVANGDVSVELRDADQQVVATGQGTSGTLQVVNPHLWQPGEGYLYELCVTAKSQTECDIYPLRVGIRSVAVKGEQFLINHKPFYFTGFGRHEDADLRGKGFDNVLMVHDHALMDWIGANSYRTSHYPYAEEMLDWADEHGIVVIDETAAVGFNLSLGIGFEAGNKPKELYSEEAVNGETQQAHLQAIKELIARDKNHPSVVMWSIANEPDTRPQGAREYFAPLAEATRKLDPTRPITCVNVMFCDAHTDTISDLFDVLCLNRYYGWYVQSGDLETAEKVLEKELLAWQEKLHQPIIITEYGVDTLAGLHSMYTDMWSEEYQCAWLDMYHRVFDRVSAVVGEQVWNFADFATSQGILRVGGNKKGIFTRDRKPKSAAFLLQKRWTGMNFGEKPQQGGKQ | + | less than 10% | + | + | + | + | + | + | 
2 | D, E: E. coli GUS mutein, Cys 253 to Glu and Cys 262 to Ser (protein, UniProt P05804 1-603, looked up, variant C253E C262S) Beta-glucuronidase: MLRPVETPTREIKKLDGLWAFSLDRENCGIDQRWWESALQESRAIAVPGSFNDQFADADIRNYAGNVWYQREVFIPKGWAGQRIVLRFDAVTHYGKVWVNNQEVMEHQGGYTPFEADVTPYVIAGKSVRITVCVNNELNWQTIPPGMVITDENGKKKQSYFHDFFNYAGIHRSVMLYTTPNTWVDDITVVTHVAQDCNHASVDWQVVANGDVSVELRDADQQVVATGQGTSGTLQVVNPHLWQPGEGYLYELEVTAKSQTESDIYPLRVGIRSVAVKGEQFLINHKPFYFTGFGRHEDADLRGKGFDNVLMVHDHALMDWIGANSYRTSHYPYAEEMLDWADEHGIVVIDETAAVGFNLSLGIGFEAGNKPKELYSEEAVNGETQQAHLQAIKELIARDKNHPSVVMWSIANEPDTRPQGAREYFAPLAEATRKLDPTRPITCVNVMFCDAHTDTISDLFDVLCLNRYYGWYVQSGDLETAEKVLEKELLAWQEKLHQPIIITEYGVDTLAGLHSMYTDMWSEEYQCAWLDMYHRVFDRVSAVVGEQVWNFADFATSQGILRVGGNKKGIFTRDRKPKSAAFLLQKRWTGMNFGEKPQQGGKQ |  |  |  |  |  |  |  |  | Yes
